We go through twelve molecules from US20160137730A1 (Novartis, published 2016).

Assay [1] deals with T1, Rat P-cadherin (CDH3) D1-5 (rat, UniProt P10287 100-647 (mouse entry)).
T1 construct: Rat CDH3 residues 100-647 with a C-terminal 6xHis tag (NM_053938.1, NP_446390); it may include leader and vector residues; also called rat pCAD-6xHis
T1 chain: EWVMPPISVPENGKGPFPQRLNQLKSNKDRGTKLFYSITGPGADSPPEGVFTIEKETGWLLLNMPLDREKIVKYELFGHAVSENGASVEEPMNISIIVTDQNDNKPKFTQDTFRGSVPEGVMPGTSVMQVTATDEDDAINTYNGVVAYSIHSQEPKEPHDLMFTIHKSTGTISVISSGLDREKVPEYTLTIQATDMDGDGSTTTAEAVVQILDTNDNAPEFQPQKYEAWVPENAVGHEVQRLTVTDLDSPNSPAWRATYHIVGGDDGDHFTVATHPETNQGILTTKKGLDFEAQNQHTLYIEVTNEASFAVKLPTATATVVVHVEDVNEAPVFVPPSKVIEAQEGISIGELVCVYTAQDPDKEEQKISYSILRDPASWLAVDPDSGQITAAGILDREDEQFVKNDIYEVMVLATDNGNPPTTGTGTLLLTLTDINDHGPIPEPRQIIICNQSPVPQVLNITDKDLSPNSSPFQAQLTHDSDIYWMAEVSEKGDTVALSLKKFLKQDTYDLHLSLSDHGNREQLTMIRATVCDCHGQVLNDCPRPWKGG
As to the kind of experiment: SPR Biacore, Ab captured via Protein A, ECD-6xHis analyte, 25C, 1:1 fit. The text has this: (§1) Briefly, HBS-P⁺ (0.01 M HEPES, pH 7.4, 0.15 M NaCl, 0.05% Surfactant P20) supplemented with 2% Odyssey® blocking buffer (Li-Cor Biosciences, Lincoln, Nebr.) was used as the running buffer for all the experiments on the Biacore® T100 instrument. HBS-P (0.01 M HEPES, pH 7.4, 0.15 M NaCl, 0.005% Surfactant P20) supplemented with 2% Odyssey® blocking buffer was used as the running buffer for all the experiments on the Biacore® 2000 instrument. The immobilization level and analyte interactions were measured by response unit (RU).
(§2) For kinetic measurements, experiments were performed in which the antibodies were captured to the sensor chip surface via the immobilized Protein A and the ability of the P-cadherin proteins to bind in free solution was determined. Briefly, 28 μg/ml of Protein A at pH 4.5 was immobilized on a CM5 sensor chip through amine coupling at flow rate of 10 μl/minute on two flow cells to reach 2300-3300 RUs. 0.01-0.25 μg/ml of test antibodies was then injected at 5 μl/min for 3 minute. […] Subsequently, 6.25-100 nM of P-cadherin ECD was diluted in a 2-fold series and injected at a flow rate of 40 μl/min for 2-4 min over both reference and test flow cells. Table 11 of tested ECDs is listed below. Dissociation of the binding was followed for 5 min. After each injection cycle, the chip surface was regenerated with PBS/6 M Guanidine HCl, pH 7.4 at 100 μl/min for 45 seconds.
(In general: SPR reads the build-up and loss of mass on a sensor chip optically.)

In assay [2] the target is T2, Human P-cadherin (CDH3) D1-5 (human, UniProt P22223 108-652).
T2 construct: Human CDH3 residues 108-652 with a C-terminal 6xHis tag, made in Tn5 insect cells with baculovirus (NM_001793.4, NP_001784); It may include a secretion signal and vector residues, as the printed cyno constructs do; no cleavage site is stated; also called human pCAD-6xHis; human P-cadherin ECD
T2 sequence (P22223 108-652 limits assumed): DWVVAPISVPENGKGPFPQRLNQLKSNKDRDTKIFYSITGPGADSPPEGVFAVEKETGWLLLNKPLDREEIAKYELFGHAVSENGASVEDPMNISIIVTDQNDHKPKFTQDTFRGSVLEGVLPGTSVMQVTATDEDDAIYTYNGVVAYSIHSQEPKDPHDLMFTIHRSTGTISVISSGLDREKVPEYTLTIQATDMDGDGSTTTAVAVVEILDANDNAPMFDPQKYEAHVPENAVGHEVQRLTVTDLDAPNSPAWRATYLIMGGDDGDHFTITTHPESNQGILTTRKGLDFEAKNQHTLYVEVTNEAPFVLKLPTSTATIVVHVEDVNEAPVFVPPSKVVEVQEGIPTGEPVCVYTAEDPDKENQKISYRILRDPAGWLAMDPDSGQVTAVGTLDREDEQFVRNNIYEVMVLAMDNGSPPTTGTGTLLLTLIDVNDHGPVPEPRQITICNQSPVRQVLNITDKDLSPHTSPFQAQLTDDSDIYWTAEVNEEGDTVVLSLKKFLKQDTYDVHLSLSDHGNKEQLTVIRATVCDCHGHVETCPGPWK
The description is as above.
Description: as §1, §2

Assay [3] deals with T1, Rat P-cadherin (CDH3) D1-5. As to the kind of experiment: SPR Biacore, ADC captured via Protein A, ECD-6xHis analyte, 25C, 1:1 fit.
Description: as §1, §2

The target in assay [4] is T2, Human P-cadherin (CDH3) D1-5. Described as above.
Description: as §1, §2

Assay [5] addresses T3, Cynomolgus Monkey P-cadherin var. 1 (CDH3) D1-5 (cynomolgus monkey).
T3 construct: Cynomolgus CDH3 variant 1 residues 108-654 with a C-terminal 6xHis tag; The printed entry starts with a leader and vector residues; also called Cyno_1 P-cad; cyno1 pCAD-6xHis
The assay is described as above.
Description: as §1, §2

Assay [6] addresses T4, Cynomolgus Monkey P-cadherin var. 2 (CDH3) D1-5 (cynomolgus monkey).
T4 construct: Cynomolgus CDH3 variant 2 residues 108-654 with a C-terminal 6xHis tag; The printed entry starts with a leader and vector residues; also called Cyno_2 P-cad; cyno2 pCAD-6xHis
Described as above.
Description: as §1, §2

Assay [7] deals with Human P-cadherin (human, UniProt P22223 108-829). As to the kind of experiment: cell-based or functional assay.
Sequence of Human P-cadherin (P22223 108-829 limits assumed): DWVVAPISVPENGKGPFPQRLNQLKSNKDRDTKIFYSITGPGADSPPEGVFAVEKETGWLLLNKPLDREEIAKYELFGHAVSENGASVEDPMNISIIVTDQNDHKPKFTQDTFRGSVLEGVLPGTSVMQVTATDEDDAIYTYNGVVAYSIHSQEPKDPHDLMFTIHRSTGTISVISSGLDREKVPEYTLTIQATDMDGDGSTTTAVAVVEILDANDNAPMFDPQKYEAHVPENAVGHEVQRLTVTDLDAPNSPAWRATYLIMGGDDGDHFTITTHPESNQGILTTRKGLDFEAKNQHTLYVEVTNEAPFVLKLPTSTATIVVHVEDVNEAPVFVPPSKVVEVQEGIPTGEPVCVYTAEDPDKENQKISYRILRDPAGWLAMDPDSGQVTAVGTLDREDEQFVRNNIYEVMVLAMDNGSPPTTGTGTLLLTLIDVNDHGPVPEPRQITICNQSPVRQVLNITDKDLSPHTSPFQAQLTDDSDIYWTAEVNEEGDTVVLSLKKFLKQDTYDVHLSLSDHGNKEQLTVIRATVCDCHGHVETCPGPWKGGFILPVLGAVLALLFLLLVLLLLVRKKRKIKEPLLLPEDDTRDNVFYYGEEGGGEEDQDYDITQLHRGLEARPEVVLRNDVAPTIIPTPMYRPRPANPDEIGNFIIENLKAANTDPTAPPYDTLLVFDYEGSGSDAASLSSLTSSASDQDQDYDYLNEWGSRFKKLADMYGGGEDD
Assay [8] has as its target T1, Rat P-cadherin (CDH3) D1-5. As to the kind of experiment: SPR Biacore, Ab captured via Protein A, ECD-6xHis analyte.

Changes are numbered by the printed parent chain.

T3 sequence (chain, as listed by the source limits assumed): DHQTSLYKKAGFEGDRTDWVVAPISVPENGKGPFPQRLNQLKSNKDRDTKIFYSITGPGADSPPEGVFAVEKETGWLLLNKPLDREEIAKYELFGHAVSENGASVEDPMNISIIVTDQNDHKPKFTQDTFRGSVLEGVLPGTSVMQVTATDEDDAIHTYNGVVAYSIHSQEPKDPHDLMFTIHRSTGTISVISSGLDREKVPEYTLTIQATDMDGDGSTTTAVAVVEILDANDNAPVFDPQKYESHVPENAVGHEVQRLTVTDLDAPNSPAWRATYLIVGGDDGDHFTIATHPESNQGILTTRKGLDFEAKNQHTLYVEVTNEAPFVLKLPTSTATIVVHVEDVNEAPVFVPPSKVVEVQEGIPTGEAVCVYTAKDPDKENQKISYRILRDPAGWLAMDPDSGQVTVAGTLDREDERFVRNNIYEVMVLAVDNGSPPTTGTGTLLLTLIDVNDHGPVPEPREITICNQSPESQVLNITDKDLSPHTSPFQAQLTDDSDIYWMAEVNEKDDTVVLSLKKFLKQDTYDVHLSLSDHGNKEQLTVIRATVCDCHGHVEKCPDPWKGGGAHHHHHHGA
T4 sequence (chain, as listed by the source limits assumed): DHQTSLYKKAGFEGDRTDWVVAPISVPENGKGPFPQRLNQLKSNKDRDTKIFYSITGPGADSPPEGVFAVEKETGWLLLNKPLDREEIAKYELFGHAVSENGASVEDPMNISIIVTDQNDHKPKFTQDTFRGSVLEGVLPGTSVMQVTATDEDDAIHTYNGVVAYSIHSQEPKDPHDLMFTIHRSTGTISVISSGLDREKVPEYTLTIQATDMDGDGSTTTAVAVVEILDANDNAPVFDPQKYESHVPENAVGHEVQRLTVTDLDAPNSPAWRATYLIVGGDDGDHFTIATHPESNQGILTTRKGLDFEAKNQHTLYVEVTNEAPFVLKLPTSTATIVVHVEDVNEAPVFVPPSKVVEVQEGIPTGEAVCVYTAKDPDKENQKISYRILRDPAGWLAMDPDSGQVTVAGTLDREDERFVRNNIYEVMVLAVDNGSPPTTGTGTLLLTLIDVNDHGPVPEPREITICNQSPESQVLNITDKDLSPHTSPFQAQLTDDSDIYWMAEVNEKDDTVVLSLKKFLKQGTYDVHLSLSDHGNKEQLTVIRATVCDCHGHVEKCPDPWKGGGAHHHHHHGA

B1: NEG0064 (antibody, human IgG1, kappa, V domains shown)
VH: QIQLVQSGAEVKKPGSSVKVSCKVSGYTFTDHTLHWMRQAPGQGLEWMGYIYPRSGSTKYNENFRGRVTITADTSSSTAYMELSSLRSEDTAVYYCVRRLLFLPLDYWGQGTLVTVSS
VL: EIVMTQSPATLSLSPGERATLSCRSSQSLLSSGNQKSYLTWYQQKPGQAPRLLIYWASTRESGIPARFSGSGSGTDFTLTISSLQPEDFAVYYCQNDYSYPFTFGQGTKLEIKR
notes: Humanized anti-P-cadherin antibody derived from a murine hybridoma; also called NEG0064 Naked
Usually Kd stands for a measure of binding affinity in units of concentration. With B1, the Kd in assay [1] was determined as 8.99 nM; in assay [2], 3.66 nM.

B2: NEG0064-MCC-DM1 (antibody, human IgG1, kappa, V domains shown)
VH: B1 VH
VL: B1 VL
modifications: DM1 (maytansinoid) attached through the MCC linker to primary amines of the antibody; sites not given
notes: Antibody drug conjugate in Ab-MCC-DM1 format; also called NEG0064 ADC
Consider B2, for which the Kd is 13.3 nM in assay [3] and 4.4 nM in assay [4].

B3: NEG0016-MCC-DM1 (antibody, human IgG1, kappa, V domains shown)
VH: B1 VH with V97A
VL: B1 VL
modifications: DM1 (maytansinoid) attached through the MCC linker to primary amines of the antibody; sites not given
notes: Antibody drug conjugate in Ab-MCC-DM1 format; also called NEG0016 ADC
B3 showed a Kd in assay [4] of 54 nM.

B4: NEG0016 (antibody, human IgG1, kappa, V domains shown)
VH: B1 VH with V97A
VL: B1 VL
notes: Humanized anti-P-cadherin antibody derived from a murine hybridoma; also called NEG0016 Naked
As for B4, the Kd was determined as 60.1 nM in assay [1] and 60 nM in assay [2].

B5: NEG0067 (antibody, human IgG1, kappa, V domains shown)
VH: B1 VH with R65K
VL: B1 VL
notes: Humanized anti-P-cadherin antibody derived from a murine hybridoma; also called NEG0067 Naked
Turning to B5, the Kd in assay [1] worked out at 10.3 nM; in assay [2], 3.21 nM.

B6: NEG0067-MCC-DM1 (antibody, human IgG1, kappa, V domains shown)
VH: B1 VH with R65K
VL: B1 VL
modifications: DM1 (maytansinoid) attached through the MCC linker to primary amines of the antibody; sites not given
notes: Antibody drug conjugate in Ab-MCC-DM1 format; also called NEG0067 ADC
In assay [4], B6 had a Kd of 6 nM.

B7: NEG0012-MCC-DM1 (antibody, human IgG1, kappa, V domains shown)
VH: EVQLVQSGAEVKKPGESLKISCKVSGYTFTDHTIHWMRQMPGKGLEWMGYIYPRSGSINYNEKFKGQVTISADKSSSTAYLQWSSLKASDTAMYYCARRNLFLPMEYWGQGTLVTVSS
VL: DIVMTQTPLSLPVTPGEPASISCRSSQSLLSSGDQKNYLTWYLQKPGQSPQLLIYWASTRESGVPDRFSGSGSGTDFTLKISRVEAEDVGVYYCQNDYRYPLTFGQGTKLEIKR
modifications: DM1 (maytansinoid) attached through the MCC linker to primary amines of the antibody; sites not given
notes: Antibody drug conjugate in Ab-MCC-DM1 format; also called NEG0012 ADC
The molecule B7 registered a Kd in assay [4] of 31.3 nM.

B8: NEG0012 (antibody, human IgG1, kappa, V domains shown)
VH: B7 VH
VL: B7 VL
notes: Humanized anti-P-cadherin antibody derived from a murine hybridoma; also called NEG0012 Naked
For the molecule B8, the affinity in assay [2], expressed as Kd, was 44.8 nM.

B9: NEG0013 (antibody, human IgG1, kappa, V domains shown)
VH: B7 VH
VL: B7 VL with D34N, R99S
notes: Humanized anti-P-cadherin antibody derived from a murine hybridoma; also called NEG0013 Naked
B9: the Kd in assay [1] came to 37 nM; in assay [2], 37.3 nM.

B10: NEG0013-MCC-DM1 (antibody, human IgG1, kappa, V domains shown)
VH: B7 VH
VL: B7 VL with D34N, R99S
modifications: DM1 (maytansinoid) attached through the MCC linker to primary amines of the antibody; sites not given
notes: Antibody drug conjugate in Ab-MCC-DM1 format; also called NEG0013 ADC
Molecule B10 returned a Kd in assay [4] of 36 nM.

B11: NOV169N31Q-MCC-DM1 (antibody, human IgG1, kappa, V domains shown)
VH: QVQLQQSGPGLVKPSQTLSLTCAISGDSVSSQSAAWNWIRQSPSRGLEWLGRIYYRSKWYNDYALSVKSRITINPDTSKNQFSLQLNSVTPEDTAVYYCARGEGYGREGFAIWGQGTLVTVSS
VL: DIQMTQSPSSLSASVGDRVTITCRASQTISNTLAWYQQKPGKAPKLLIYAASNLQSGVPSRFSGSGSGTDFTLTISSLQPEDFATYYCQQYLSWFTFGQGTKVEIKR
modifications: DM1 (maytansinoid) attached through the MCC linker to primary amines of the antibody; sites not given
notes: MAR 3.7 (one-step process), 3.15 (in situ process), target DAR 3.8; also called NOV169N31Q ADC
The molecule B11 displayed a Kd in assay [4] of 27 nM. The affinity in assay [5], expressed as Kd, was 27.5 nM. Also, binding in assay [6] was put at a Kd of 47.1 nM. In assay [7], the “IC50 (nM), CellTiter-Glo proliferation/survival, 5 days, A431 cells” value stood at 21.8 nM; the “IC50 (nM), CellTiter-Glo proliferation/survival, 5 days, BICR6 cells” value stood at 9.62 nM; the “IC50 (nM), CellTiter-Glo proliferation/survival, 5 days, HCC38 cells” value was 5.29 nM; the “IC50 (nM), CellTiter-Glo proliferation/survival, 5 days, HCC70 cells” value was found to be 3.23 nM. Moreover, in assay [7], the “IC50 (nM), CellTiter-Glo proliferation/survival, 5 days, HCC1806 cells” value came to 11.4 nM; the “IC50 (nM), CellTiter-Glo proliferation/survival, 5 days, HCC1954 cells” value is 2.28 nM; the “IC50 (nM), CellTiter-Glo proliferation/survival, 5 days, scaBER cells” value turned out to be 4.06 nM.

B12: NOV169N31Q (antibody, human IgG1, kappa, V domains shown)
VH: B11 VH
VL: B11 VL
notes: N31Q in HCDR1 removes a deamidation site of parental NOV169; also called anti-P-cadherin antibody NOV169N31Q; NOV169N31Q Naked
Turning to B12, the binding result in assay [8] is recorded as “no binding (tested: 6.25-100 nM P-cadherin ECD injected)”. This molecule had a Kd in assay [2] of 33.3 nM.
